Experimental data from publication doi:10.1101/2021.04.08.21254942.
pKd: −log10 of the molar value.

Biological target: TAMRA-labeled M9-NLS of hnRNPA2 WT peptide (human)
Assay: fluorescence polarisation

Substance: Karyopherin-β2 WT (from UniProt Q92973 1-898) (receptor)
- pKd: 7.02
